These results are taken from IntAct's records for PubMed 16902405.

The target in assay [1] is rab6a_human RAB6A (UniProt P20340).
Assay [2] has as its target rab5a_human RAB5A (UniProt P20339).
The target of assay [3] is rab1a_human RAB1A (UniProt P62820).
For assay [4], the target named is clh1_human CLTC (UniProt Q00610).
Assay [5] has as its target rab6a_human RAB6A (UniProt P20340). The source holds these as a separate data set.
Assay [6] concerns the target rab5a_human RAB5A (UniProt P20339). The source holds these as a separate data set.
The target of assay [7] is rab1a_human RAB1A (UniProt P62820). The source holds these as a separate data set.
Assay [8] addresses rab6a_human RAB6A (UniProt P20340). The source holds these as a separate data set.
The target of assay [9] is clh1_human CLTC (UniProt Q00610). The source holds these as a separate data set.
For assay [10] the target is unchanged. The source holds these as a separate data set.
Assay [11] has as its target rab6a_human RAB6A (UniProt P20340). This is another data set of the same source.
The target in assay [12] is rab5a_human RAB5A (UniProt P20339). The source holds these as a separate data set.
rab5a_human RAB5A, sequence (P20339 whole entry): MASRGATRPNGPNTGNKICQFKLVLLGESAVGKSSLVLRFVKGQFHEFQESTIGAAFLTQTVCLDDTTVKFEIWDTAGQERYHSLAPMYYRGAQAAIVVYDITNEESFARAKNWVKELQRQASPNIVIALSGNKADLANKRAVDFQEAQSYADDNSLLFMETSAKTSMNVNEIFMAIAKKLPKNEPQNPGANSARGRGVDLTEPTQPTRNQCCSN
The target in assay [13] is rab6a_human RAB6A (UniProt P20340). This is another data set of the same source.
In assay [14] the target is rab1a_human RAB1A (UniProt P62820). The source holds these as a separate data set.
Assay [15] addresses rab6a_human RAB6A (UniProt P20340). This is another data set of the same source.
Assay [16] addresses rab5a_human RAB5A (UniProt P20339). The source holds these as a separate data set.
Assay [17] deals with rab1a_human RAB1A (UniProt P62820). This is another data set of the same source.

rab6a_human RAB6A, sequence (P20340 whole entry, looked up): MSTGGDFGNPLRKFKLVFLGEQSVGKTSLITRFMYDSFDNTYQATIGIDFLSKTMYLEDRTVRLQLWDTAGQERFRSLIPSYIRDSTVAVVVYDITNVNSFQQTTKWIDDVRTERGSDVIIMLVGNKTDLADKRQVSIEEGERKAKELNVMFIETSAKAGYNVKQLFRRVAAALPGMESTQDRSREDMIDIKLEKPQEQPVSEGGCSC
Inositol polyphosphate 5-phosphatase OCRL (Homo sapiens), Q01968 G664D, sequence (Q01968 whole entry G664D): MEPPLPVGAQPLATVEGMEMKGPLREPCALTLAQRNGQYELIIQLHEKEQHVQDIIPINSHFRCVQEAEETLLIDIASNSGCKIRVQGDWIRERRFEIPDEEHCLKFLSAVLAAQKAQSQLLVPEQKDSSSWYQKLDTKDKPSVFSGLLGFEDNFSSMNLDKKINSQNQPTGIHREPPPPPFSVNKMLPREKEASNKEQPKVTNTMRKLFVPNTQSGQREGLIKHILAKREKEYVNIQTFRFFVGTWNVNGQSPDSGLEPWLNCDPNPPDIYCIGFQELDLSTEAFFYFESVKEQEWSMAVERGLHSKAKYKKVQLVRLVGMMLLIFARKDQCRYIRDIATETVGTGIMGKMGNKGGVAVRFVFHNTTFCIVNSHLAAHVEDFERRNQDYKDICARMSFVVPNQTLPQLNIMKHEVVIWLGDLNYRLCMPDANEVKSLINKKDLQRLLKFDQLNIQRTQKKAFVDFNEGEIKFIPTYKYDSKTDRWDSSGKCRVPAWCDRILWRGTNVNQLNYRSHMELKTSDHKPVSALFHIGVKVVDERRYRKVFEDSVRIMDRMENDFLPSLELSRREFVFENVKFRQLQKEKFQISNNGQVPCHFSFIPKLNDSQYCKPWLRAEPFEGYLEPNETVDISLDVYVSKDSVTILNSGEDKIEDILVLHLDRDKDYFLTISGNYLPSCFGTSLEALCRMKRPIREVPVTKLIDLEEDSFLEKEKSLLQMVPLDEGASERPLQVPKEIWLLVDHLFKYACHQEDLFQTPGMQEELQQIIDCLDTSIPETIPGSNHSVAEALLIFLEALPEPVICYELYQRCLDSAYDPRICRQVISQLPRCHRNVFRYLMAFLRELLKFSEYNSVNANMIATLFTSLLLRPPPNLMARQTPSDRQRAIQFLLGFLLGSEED
Inositol polyphosphate 5-phosphatase OCRL (Homo sapiens), Q01968 S564P, sequence (Q01968 whole entry S564P): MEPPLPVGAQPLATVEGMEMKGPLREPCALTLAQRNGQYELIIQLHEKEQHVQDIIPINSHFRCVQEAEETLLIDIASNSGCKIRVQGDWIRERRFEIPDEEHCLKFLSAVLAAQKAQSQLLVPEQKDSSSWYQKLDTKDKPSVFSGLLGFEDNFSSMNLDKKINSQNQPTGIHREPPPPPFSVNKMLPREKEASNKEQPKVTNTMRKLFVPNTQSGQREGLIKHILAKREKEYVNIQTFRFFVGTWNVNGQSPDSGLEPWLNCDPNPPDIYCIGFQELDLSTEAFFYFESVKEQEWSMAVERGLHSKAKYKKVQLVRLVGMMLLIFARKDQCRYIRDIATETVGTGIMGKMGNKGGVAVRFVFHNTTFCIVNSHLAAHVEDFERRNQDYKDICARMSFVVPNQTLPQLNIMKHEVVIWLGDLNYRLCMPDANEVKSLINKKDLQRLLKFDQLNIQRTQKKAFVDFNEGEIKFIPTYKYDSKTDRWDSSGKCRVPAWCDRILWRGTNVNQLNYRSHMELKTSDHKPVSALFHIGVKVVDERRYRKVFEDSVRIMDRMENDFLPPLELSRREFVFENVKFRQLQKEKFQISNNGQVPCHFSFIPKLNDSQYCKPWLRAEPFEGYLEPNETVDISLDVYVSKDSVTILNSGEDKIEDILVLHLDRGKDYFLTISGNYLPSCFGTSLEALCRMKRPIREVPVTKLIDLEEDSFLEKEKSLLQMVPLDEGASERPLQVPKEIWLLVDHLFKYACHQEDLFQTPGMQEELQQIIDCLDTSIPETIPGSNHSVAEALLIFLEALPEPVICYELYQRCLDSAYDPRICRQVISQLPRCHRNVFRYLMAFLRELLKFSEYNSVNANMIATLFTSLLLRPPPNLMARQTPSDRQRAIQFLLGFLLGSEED
Inositol polyphosphate 5-phosphatase OCRL (Homo sapiens), Q01968 S568G, sequence (Q01968 whole entry S568G): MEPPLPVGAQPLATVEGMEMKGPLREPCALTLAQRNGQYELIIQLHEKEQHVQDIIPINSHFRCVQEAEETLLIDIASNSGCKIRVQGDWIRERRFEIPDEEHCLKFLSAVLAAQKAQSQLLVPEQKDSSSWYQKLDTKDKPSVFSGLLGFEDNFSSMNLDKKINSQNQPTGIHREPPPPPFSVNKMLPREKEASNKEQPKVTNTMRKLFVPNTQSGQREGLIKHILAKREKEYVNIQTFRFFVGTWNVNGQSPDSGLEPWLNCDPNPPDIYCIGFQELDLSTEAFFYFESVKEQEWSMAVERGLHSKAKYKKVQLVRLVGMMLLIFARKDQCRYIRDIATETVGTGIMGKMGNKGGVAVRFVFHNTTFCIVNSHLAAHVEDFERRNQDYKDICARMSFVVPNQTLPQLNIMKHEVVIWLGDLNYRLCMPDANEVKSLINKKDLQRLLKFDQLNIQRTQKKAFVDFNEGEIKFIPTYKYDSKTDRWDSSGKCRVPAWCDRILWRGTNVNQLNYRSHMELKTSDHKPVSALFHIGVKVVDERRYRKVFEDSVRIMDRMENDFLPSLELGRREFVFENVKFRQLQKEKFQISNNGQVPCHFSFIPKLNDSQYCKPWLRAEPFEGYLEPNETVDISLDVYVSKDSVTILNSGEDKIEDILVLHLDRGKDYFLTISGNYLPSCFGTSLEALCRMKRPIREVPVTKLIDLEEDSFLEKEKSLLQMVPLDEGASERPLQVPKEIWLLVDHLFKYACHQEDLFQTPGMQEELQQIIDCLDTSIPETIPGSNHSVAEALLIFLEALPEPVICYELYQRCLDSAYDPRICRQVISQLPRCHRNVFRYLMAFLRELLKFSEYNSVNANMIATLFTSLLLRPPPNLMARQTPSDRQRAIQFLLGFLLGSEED
clh1_human CLTC, sequence (Q00610 whole entry): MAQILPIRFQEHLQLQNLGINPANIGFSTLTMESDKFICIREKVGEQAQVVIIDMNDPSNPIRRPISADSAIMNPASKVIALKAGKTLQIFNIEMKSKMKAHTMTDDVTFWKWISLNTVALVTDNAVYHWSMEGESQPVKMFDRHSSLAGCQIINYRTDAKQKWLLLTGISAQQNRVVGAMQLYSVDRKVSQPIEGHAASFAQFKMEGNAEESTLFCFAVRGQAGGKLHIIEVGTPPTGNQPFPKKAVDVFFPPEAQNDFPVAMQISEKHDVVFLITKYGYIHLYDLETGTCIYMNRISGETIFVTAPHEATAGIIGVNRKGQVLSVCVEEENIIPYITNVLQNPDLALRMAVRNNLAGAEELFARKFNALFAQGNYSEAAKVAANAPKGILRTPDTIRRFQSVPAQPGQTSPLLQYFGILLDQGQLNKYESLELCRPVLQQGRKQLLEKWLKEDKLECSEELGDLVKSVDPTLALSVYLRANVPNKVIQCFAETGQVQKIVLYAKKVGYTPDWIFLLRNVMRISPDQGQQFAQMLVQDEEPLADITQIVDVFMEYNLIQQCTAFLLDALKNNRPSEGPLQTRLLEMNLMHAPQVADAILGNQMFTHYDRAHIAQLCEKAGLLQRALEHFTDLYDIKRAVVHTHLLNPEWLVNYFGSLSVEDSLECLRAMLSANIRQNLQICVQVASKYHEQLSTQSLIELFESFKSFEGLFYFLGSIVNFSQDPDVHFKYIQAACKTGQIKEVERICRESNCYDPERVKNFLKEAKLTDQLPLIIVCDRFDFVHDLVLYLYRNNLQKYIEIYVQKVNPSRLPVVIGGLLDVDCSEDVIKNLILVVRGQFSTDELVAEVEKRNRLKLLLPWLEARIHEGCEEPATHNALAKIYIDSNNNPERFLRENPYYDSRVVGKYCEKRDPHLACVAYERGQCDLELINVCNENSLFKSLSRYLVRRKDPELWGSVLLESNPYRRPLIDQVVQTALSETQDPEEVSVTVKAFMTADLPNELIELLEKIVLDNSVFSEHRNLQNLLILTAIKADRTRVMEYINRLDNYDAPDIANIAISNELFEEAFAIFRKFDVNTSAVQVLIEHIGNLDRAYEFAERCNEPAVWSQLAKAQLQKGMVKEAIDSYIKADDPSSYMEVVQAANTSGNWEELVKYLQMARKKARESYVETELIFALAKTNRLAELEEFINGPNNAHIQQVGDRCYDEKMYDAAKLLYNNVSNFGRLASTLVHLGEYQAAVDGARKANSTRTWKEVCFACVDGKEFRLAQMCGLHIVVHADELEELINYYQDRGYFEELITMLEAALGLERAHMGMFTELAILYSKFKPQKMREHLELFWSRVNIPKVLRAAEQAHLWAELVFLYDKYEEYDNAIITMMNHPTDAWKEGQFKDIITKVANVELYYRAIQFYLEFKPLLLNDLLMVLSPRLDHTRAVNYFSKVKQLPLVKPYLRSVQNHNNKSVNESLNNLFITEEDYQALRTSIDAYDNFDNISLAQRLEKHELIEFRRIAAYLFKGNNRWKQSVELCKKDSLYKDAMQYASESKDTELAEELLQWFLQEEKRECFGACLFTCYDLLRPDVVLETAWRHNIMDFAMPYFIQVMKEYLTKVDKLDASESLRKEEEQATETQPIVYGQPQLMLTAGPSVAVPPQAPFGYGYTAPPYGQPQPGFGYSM
rab1a_human RAB1A, sequence (P62820 whole entry): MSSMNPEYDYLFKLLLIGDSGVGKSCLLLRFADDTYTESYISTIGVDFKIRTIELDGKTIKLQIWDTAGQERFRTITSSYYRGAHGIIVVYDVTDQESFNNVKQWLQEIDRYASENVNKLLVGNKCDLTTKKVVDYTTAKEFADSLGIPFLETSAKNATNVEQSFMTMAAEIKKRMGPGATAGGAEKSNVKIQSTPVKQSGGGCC

With “Inositol polyphosphate 5-phosphatase OCRL (Homo sapiens), Q01968 D555E”, the “effect of a mutation on the interaction” value was “decreasing interaction” in the assay with rab6a_human RAB6A [1], “decreasing interaction” with rab5a_human RAB5A [2], “disrupting interaction” with rab1a_human RAB1A [3] and “decreasing interaction” with clh1_human CLTC [4].
Turning to “Inositol polyphosphate 5-phosphatase OCRL (Homo sapiens), Q01968 G664D”, the “effect of a mutation on the interaction” value in the assay with rab6a_human RAB6A [5] is “disrupting interaction”; with rab5a_human RAB5A [6], “decreasing interaction”; with rab1a_human RAB1A [7] it was “disrupting interaction”.
With “Inositol polyphosphate 5-phosphatase OCRL (Homo sapiens), Q01968 N606K”, the “effect of a mutation on the interaction” value with rab6a_human RAB6A [8] and with clh1_human CLTC [9] was “increasing interaction” each time.
Consider “Inositol polyphosphate 5-phosphatase OCRL (Homo sapiens), Q01968 P526H”, for which the “effect of a mutation on the interaction” value with clh1_human CLTC [10] and with rab6a_human RAB6A [11] was “increasing interaction” each time.
As to “Inositol polyphosphate 5-phosphatase OCRL (Homo sapiens), Q01968 S564P”, the “effect of a mutation on the interaction” value with rab5a_human RAB5A [12] is listed as “decreasing interaction”; with rab6a_human RAB6A [13], “disrupting interaction”; with rab1a_human RAB1A [14] it was “disrupting interaction”.
For “Inositol polyphosphate 5-phosphatase OCRL (Homo sapiens), Q01968 S568G”, the “effect of a mutation on the interaction” value with rab6a_human RAB6A [15] is “decreasing interaction”; with rab5a_human RAB5A [16], “increasing interaction”; in the assay with rab1a_human RAB1A [17], “increasing interaction”.
